One may read the pKd as the negative decadic logarithm of the Kd, by convention in mol/L. Read a high pKd as a low Kd.

The target in assay [1] is SARS-CoV RBD, His-tagged, for antibody binding studies (SARS-CoV) (UniProt P59594). Put plainly: BLI. A general note: In BLI a coated tip is dipped into the sample, and binding shifts an interference pattern.
Assay [2] addresses SARS-CoV-2 RBD, His-tagged, for antibody binding studies (SARS-CoV-2) (UniProt P0DTC2). Put plainly: BLI.

pKd: −log10 of the molar value.

For COVA1-16 Fab, His-tagged, the negative logarithm of the Kd (pKd) in assay [1] is 6.39; in assay [2], 7.34.
For the substance COVA1-16 IgG1 antibody, the pKd is 6.90 in assay [1] and 9.70 in assay [2].

The values above are taken from publication PMC7687367.
